Source: patent US20260125455A1

What was measured:
[1] = molecular target: human C5b6 complex (human) (UniProt P01031); test: ELISA, C5b6-coated wells
[2] = molecular target: human C5b6 complex (human) (UniProt P01031); test: ELISA, C5b6-coated wells, purified antibody
[3] = molecular target: human C5b6 complex (human) (UniProt P01031); test: ELISA, C5b6-coated wells, large-scale purified antibody

Binder | EC50 [1] [nM] | EC50 [2] [nM] | EC50 [3] [nM]
MoC601 HuG4K (chimeric C601 antibody) (antibody, human IgG4 S228P, kappa, V domains shown) VH: QVQLQQSGAELVKPGASVKISCKASGYAFSDYWMNWVKQRPGKGLEWIGQIYPGDDDTNYNGKFKGKATLTADKSSSTAYMQLSSLTSEDSAVYFCAREGYYGYTYVEYFDVWGTGTTVTVSS VL: QIVLTQSPAIMSVSPGEKVTLTCSASSSVSYMHWYQQKSGTSPKRWIYDTSKLASGVPARFSGSGSGTSYSLTISSMEAEDAATYYCQQWTSNPLTFGAGTKLELRR | 0.09 | 0.09 | 
C601HOKC4 HuG4K (antibody, human IgG4 S228P, kappa, V domains shown) VH: QVQLVQSGAEVKKPGESLKISCKASGYAFSDYWINWVRQMPGKGLEWMGQIYPGDDDTNYNPSFQGQATLSADKSISTAYLQWSSLKASDTAMYYCAREGYYGYTYVEYFDVWGTGTTVTVSS VL: QIVLTQSPATLSLSPGERATLSCRASSSVSYLHWYQQKPGQSPRLWIYDTSKRATGIPARFSGSGSGTDYTLTISSLEPEDFAVYYCQQWTSNPLTFGQGTKLEIKR |  |  | 0.11
